“Also recorded” adds a separate entry of the source.
How the values were obtained:
HJ DNA = experiment: Stabilization of HJ DNA at RT or 55° C, non-denaturing PAGE; format: binding; conditions: 32P HJ DNA, 25-500 nM protein, 10 min
Experimental: 5′ end-labeled ^32P HJ DNA was incubated with increasing concentrations (25-500 nM) of IHF (FIG. 8A), rHMGB1 (FIG. 8B) or RuvA (FIG. 8C) either at room temperature (RT) or at 55° C. for 10 min, then resolved on a 6% non-denaturing PAGE. Asterisk indicates melted oligos and arrows indicate DNA-protein complex. […] This outcome contrasts with that observed with both IHF and the prototypic HJ DNA binding protein, RuvA.
To test the hypothesis, HJ DNA was incubated with either HMGB1, the DNABII protein IHF, or the prototypic HJ DNA binding protein, RuvA at room temperature (RT) or 55° C. (melting temperature of HJ DNA) and resolved the complexes by non-denaturing polyacrylamide gel electrophoresis (PAGE). […] (FIG. 8) as indicated by the decrease in abundance of the shifted HJ DNA-HMGB1 complex (arrow) and the concomitant increase in the constituent melted oligos (asterisk).
Electrophoretic mobility shift assay (EMSA): EMSA was performed as previously described (Devaraj et al., 2019).

[1] = test system: eDNA lattice within K. pneumoniae biofilms; experiment: Visualization of eDNA lattice structure within K. pneumoniae biofilms (immunofluorescence, CLSM); format: cell-based, Klebsiella pneumoniae; conditions: 24 h K. pneumoniae biofilms, 200 nM protein, 16 h
Excerpt: Per the model as disclosed herein, HMGB1 would compete with DNABII proteins, wherein instead of stabilization, HMGB1 would de-stabilize these HJ-like structures and consequently disrupt the biofilm.

Human neutrophils = experiment: NET formation by neutrophils incubated with HMGB1 isoforms (CLSM); format: cell-based; conditions: 200 nM protein, 3.5 h
Experimental: Neutrophils were fixed, then labeled as described above to visualize the NETs.
Visualization of NETs structure upon incubation of neutrophils with various isoforms of HMGB1: Human neutrophils were isolated from blood using the EASYSEP™ isolation kit (Stemcell Technologies Inc.). […] NETs were fixed in formalin, blocked with 10% normal goat serum (Life Technologies), and labeled with α-dsDNA monoclonal antibody (1 μg), and α-neutrophil elastase polyclonal antibody (1 μg) or naive rabbit and mouse isotype controls (1 μg) in 200 μl PBS for 16 h hours at 4° C. NETs were washed with PBS and incubated for 1 h with 1:200 dilution goat α-rabbit IgG conjugated to ALEXAFLUOR® 594, goat α-mouse IgG conjugated to ALEXAFLUOR® 488, and 1:500 dilution wheat germ agglutinin conjugated to ALEXAFLUOR® 350 (PMN membrane stain). NETs were imaged with a Zeiss LSM 800 confocal microscope (Carl Zeiss Inc.) and rendered with Zeiss Zen software.

[2] = Inflammatory cell recruitment into lungs of B. cenocepacia-challenged mice (H&E, flow cytometry of BAL); format: in vivo, C57BL/6 mice; conditions: B. cenocepacia-challenged mice, 0.2 nmol, 72 hpi
neutrophils in BAL = experiment: as above; format: in vivo, C57BL/6 mice; conditions: B. cenocepacia-infected and simultaneously treated, 0.2 nmol, 18 hpi
TNF-α = experiment: Mouse model of endotoxemia, serum TNF-α by ELISA; format: in vivo, C57BL/6 mice; conditions: i.p. 0.2 nmol endotoxin-free rHMGB1 or LPS 5 mg/kg; 24 h
Experimental: Since excess HMGB1 can mediate dysregulated host response to infection associated with septic shock, the ability of rHMGB1 (0.2 nmol; the concentration used to treat in vivo biofilms) to induce septic shock was evaluated in mice. Mice were injected i.p. with either 0.2 nmol endotoxin-free rHMGB1, lipopolysaccharide (LPS; 5 mg/kg) or both, then monitored for signs of septic shock for 24 hours.
Mouse model of endotoxemia: C57BL/6 mice were injected i.p. with 5 mg/kg of E. coli lipopolysaccharide (Sigma), or 0.2 nmol rHMGB1 alone or in combination with LPS. Animals were euthanized 24 h later, serum was collected, and TNF-α was quantified by ELISA (ThermoFisher).

[3] = test system: pro-inflammatory and anti-inflammatory cytokines; experiment: Quantitation of cytokines in middle ear fluids (cytometric bead array); format: in vivo, chinchilla (Chinchilla lanigera); conditions: six days after NTHI challenge, one day after completion of treatment
Experimental: Quantitation of cytokines in middle ear fluids: To quantitate cytokines in middle ear fluids (MEF), a BD™ Cytometric Bead Array was performed with fluids collected at the time of animal sacrifice. With BD™ human-specific Flex Sets, each MEF was individually examined for relative quantity of IL-1β, IL-4, IL-6, IL-8, IL-10, IL12-p70, IL-13, IL-17A, TNF or IFNγ according to manufacturer's instructions. MEFs from each animal were assayed individually. Data were captured on a BD ACCURI™ C6 cytometer (BD Biosciences) and analyzed with FlowJo software (FlowJo, LLC). The concentration of cytokines in each MEF was determined using a standard curve and calculated using GraphPad Prism software.

B. cenocepacia = experiment: Murine model of lung infection by B. cenocepacia, bacterial burden; conditions: 0.2 nmol i.t. at 24 hpi; 72 hpi; α-EF-Tu labeling
Experimental: Intratracheal challenge of the murine lung with B. cenocepacia and treatment with HMGB1 isoforms: B. cenocepacia strain K56-2, was cultured in LB broth (Difco, Md.) at 37° C. overnight at 200 rpm. Bacterial concentration was adjusted before each experiment based on OD at 600 nm. C57BL/6 mice were infected intratracheally (i.t.) with 10^7 colony forming units (CFU) of B. cenocepacia. […] Animals were euthanized 24 or 48 hpi, and bronchoalveolar lavage (BAL) was collected with 1 ml of PBS plus 1 mM EDTA. […] The slides were permeabilized with 0.5% Triton X-100 for 10 minutes, blocked with 10% normal goat serum (Abcam) for 30 minutes and stained with a monoclonal antibody against E. coli Elongation Factor-Tu (α-EF-Tu; cross reacts with B. cenocepacia) (LSBio) overnight to label B. cenocepacia. The samples were then stained with goat α-mouse IgG Alexa Fluor 488 (Abcam) for 1 h at RT, mounted with fluoroshield media with DAPI (Abcam), visualized via the Nikon Eclipse Ti at 40× magnification (Nikon Instrument Inc. Americas) and analyzed by ImageJ software (NIH). To enumerate bacterial burden, the animals were euthanized 18 or 72 hpi, bronchoalveolar lavage was collected with 1 ml of PBS plus 1 mM EDTA, an aliquot of BAL was serially diluted and plated on LB agar. […] Neither animals nor samples were excluded from evaluation in any study.

UPEC biofilms [4] = experiment: Disruption of 24 h UPEC biofilms in vitro (CLSM, COMSTAT average thickness); conditions: 24 h UPEC biofilms, indicated concentrations of rHMGB1
S. aureus biofilms = experiment: Disruption of 24 h S. aureus biofilms in vitro (CLSM, COMSTAT average thickness); conditions: 24 h biofilms, 16 h; non-bactericidal dose
E. faecium biofilms = experiment: Disruption of 24 h E. faecium biofilms in vitro (CLSM, COMSTAT average thickness); conditions: 24 h biofilms, 1 h incubation; non-bactericidal dose
UPEC biofilms [5] = conditions: 24 h UPEC biofilms, rHMGB1 200 nM, 16 h
[6] = test system: biofilms formed by UPEC, B. cenocepacia, NTHI, Enterobacter spp, S. aureus, K. pneumoniae, A. baumanii, P. aeruginosa, E. faecium; experiment: Disruption of 24 h bacterial biofilms in vitro by HMGB1 isoforms (LIVE/DEAD stain, CLSM, COMSTAT average thickness); conditions: 24 h biofilms of nine pathogens; 200 nM protein, 16 h (S. aureus 800 nM rHMGB1; E. faecium 800 nM, 1 h)

B1: rHMGB1: recombinant HMGB1 derived from a human, expressed and purified in E. coli, SEQ ID NO: 51; comparator to mHMGB1 (protein, listed as Homo sapiens)
chain: MGKGDPKKPRGKMSSYAFFVQTCREEHKKKHPDASVNFSEFSKKCSERWKTMSAKEKGKFEDMAKADKARYEREMKTYIPPKGETKKKFKDPNAPKRPPSAFFLFCSEYRPKIKGEHPGLSIGDVAKKLGEMWNNTAADDKQPYEKKAAKLKEKYEKDIAAYRAKGKPDAAKKGVVKAEKSKKKKEEEEGEEDEEDEEEEEDEEDEDEEEDDDDE
stabilization of HJ DNA at 55° C (melting temperature of HJ DNA) (HJ DNA): unstable at 55 °C
stabilization of HJ DNA at 55° C (melting temperature of HJ DNA) (HJ DNA; listed as HMGB1): unable to efficiently stabilize the HJ DNA at 55 °C
HJ DNA-protein complex at room temperature (RT) (HJ DNA): stable at RT
HJ DNA-protein complex at room temperature (RT) (HJ DNA; listed as HMGB1): bound to HJ DNA to form stable complexes at RT
biofilm bacteria (FilmTracer FM 4-64) [1]: substantial reduction in biofilm bacteria
web-like eDNA lattice structure within biofilm [1]: disruption of the web-like structure; also recorded: notably disrupted
induction of NET formation by neutrophils (Human neutrophils): intertwined NETs specifically formed; also recorded: modest effect on induction of NETs
infiltration of inflammatory cells into lungs (H&E) [2]: significant infiltration of inflammatory cells
neutrophils in BAL (flow cytometry) (neutrophils in BAL): significantly greater number of neutrophils in BAL compared to the control
serum TNF-α (septic shock) (TNF-α): did not induce septic shock; also recorded: did not induce detectable TNF-α
IL-1β in middle ear fluids [3]: significantly elevated concentration; also recorded: statistically significant increase
IL-17A in middle ear fluids [3]: significantly elevated concentration; also recorded: statistically significant increase
B. cenocepacia stained within the lung tissue (B. cenocepacia): significantly reduced bacterial load
dose dependence of UPEC biofilm disruption (UPEC biofilms [4]): dose-dependent disruption; also recorded: dose-dependent activity
dose required to achieve a similar reduction in biofilm average thickness, S. aureus (S. aureus biofilms): 800 nM
dose required to achieve a similar reduction in biofilm average thickness, E. faecium (E. faecium biofilms): 800 nM
bacteria in the planktonic state (UPEC biofilms [5]): statistically significant increase in the planktonic bacteria
biofilm-resident bacteria (UPEC biofilms [5]): statistically significant decrease in biofilm-resident bacteria
biofilm average thickness compared to control [6]: significantly disrupted bacterial biofilms; also recorded: significant reduction in biofilm average thickness

Source: patent publication US20230272054A1, “COMBINATION THERAPIES FOR THE TREATMENT AND PREVENTION OF BIOFILMS” (priority 2020, published 2023)
